Reference: US20240279315A1 (priority 2023, published 2024)
Like-named read-outs stand apart in the source and are kept apart here.

Assays:
[1] = tested on: influenza A/Hong Kong/2369/2009 (H1N1pdm) H275Y; set-up: species or system BALB/c mice; settings: mouse, in vivo
[2] = biological target: hemagglutinin (HA) of influenza A/Michigan/45/2015 pH1N1 (influenza A virus A/Michigan/45/2015 (H1N1)); assay: cell-based or functional assay
[3] = biological target: hemagglutinin (HA) of influenza A/Guangdong-maonan/2019 H1N1 (influenza A virus A/Guangdong-maonan/2019 (H1N1)); assay: cell-based or functional assay
[4] = biological target: hemagglutinin (HA) of influenza A/Michigan/45/2015 pH1N1 (influenza A virus A/Michigan/45/2015 (H1N1)); assay: cell-based or functional assay; remark: listed apart in the source
[5] = biological target: hemagglutinin (HA) of influenza A/Michigan/45/2015 pH1N1 (influenza A virus A/Michigan/45/2015 (H1N1)); assay: cell-based or functional assay; remark: listed apart in the source
[6] = biological target: hemagglutinin (HA) of influenza A/Hong Kong/2671/2019 (Egg) H3N2 (influenza A virus A/Hong Kong/2671/2019 (H3N2)); assay: cell-based or functional assay
[7] = biological target: hemagglutinin (HA) of influenza A/Guangdong-maonan/2019 H1N1 (influenza A virus A/Guangdong-maonan/2019 (H1N1)); assay: cell-based or functional assay; remark: listed apart in the source

Compound | protection from weight loss [1] | HAI titer [2] | HAI titer [3] | HAI titer ratio of SAB-176 to hIVIG [3] | HAI titer [4] | HAI titer ratio of SAB-176 to hIVIG [4] | HAI titer [5] | HAI titer (Egg) [6] | HAI titer ratio of SAB-176 to hIVIG (Egg) [6] | HAI titer (Cell) [7] | HAI titer (Egg) [7] | HAI titer ratio of SAB-176 to hIVIG (Cell) [7] | HAI titer ratio of SAB-176 to hIVIG (Egg) [7] | HAI titer of drug product [2] | HAI titer ratio of SAB-176 to hIVIG [2] | HAI titer of drug product [7]
CCOC(=O)C1=C[C@@H](OC(CC)CC)[C@H](NC(C)=O)[C@@H](N)C1 [oseltamivir] | did not protect mice from weight loss | – | – | – | – | – | – | – | – | – | – | – | – | – | – | –
SAB-176 (antibody) | – | > 2048 titer | – | – | – | – | – | – | – | – | – | – | – | – | – | –
SAB-176 Lot 1 (PD1901102QR) (antibody) | – | – | 512 titer | 16 to 32 X | 512 titer | 16 X | 1280 titer | 64 titer | 4 to 8 X | 512 titer | 512 titer | 16 X | 16 to 32 X | 7680 titer | – | –
SAB-176 Lot 2 (PD2001010QR) (antibody) | – | 512 titer | – | – | – | – | 1280 titer | 128 titer | 8 to 16 X | 512 titer | 512 titer | 16 X | 16 to 32 X | 14300 titer | 16 X | –
SAB-176 Lot 3 (antibody) | – | 512 titer | – | – | – | – | – | 256 titer | 16 to 32 X | 512 titer | 512 titer | 16 X | 16 to 32 X | – | 16 X | –
SAB-176 Lot 4 (PD2102092QR) (antibody) | – | 512 titer | 512 titer | 16 to 32 X | – | – | 1810 titer | 256 titer | 16 to 32 X | 512 titer | 512 titer | 16 X | 16 to 32 X | – | 16 X | 7680 titer
SAB-176 Lot 5 (PD2203294QR) (antibody) | – | – | – | – | – | – | 1280 titer | – | – | – | – | – | – | – | – | –
SAB-176 Lot 6 (PD2204315QR) (antibody) | – | – | – | – | – | – | 905 titer | – | – | – | – | – | – | – | – | –
negative control IgG (antibody) | – | < 1 titer | < 1 titer | – | – | – | – | < 1 titer | – | < 1 titer | < 1 titer | – | – | – | – | –
